B1: PDZK1 (parent)
chain: RETASLKLLPHQPRIVEMKKGSNG
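Also: lentivirally expressed fusions sorted by FACS into six bins by GFP to DsRed ratio, PSI derived from sequencing read proportions per bin multiplied by bin number.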

The data set covers variants of B1. In words: protein stability index of a GFP-peptide fusion (GPS, HEK-293T) (PSI 1-6); higher = more stable. Particulars: c terminus: a fixed tail appended.
In the case of RETASLKLLPHQPRIVEMKTGSNG [K20T], the protein stability index stood at 3.51. Consider RETASLKLLPHQPRIVEMKMGSNG [K20M], for which the protein stability index came out at 3.57.

Consider RETASLKLLPHQPRIVEMKEGSNG [K20E], for which the protein stability index is 4.87.

As to RETASLKLLPHQPRIVEMKQGSNG [K20Q], the protein stability index worked out at 4.06. Next, RETASLKLLPHQPRIVEMKPGSNG [K20P]: 3.99; RETASLKLLPHQPRIVEMKAGSNG [K20A]: 3.46.

On to RETASLKLLPHQPRIVEMKHGSNG [K20H], for which the protein stability index worked out at 4.4. Regarding RETASLKLLPHQPRIVEMKCGSNG [K20C], the protein stability index was 3.65. Next, RETASLKLLPHQPRIVEMKLGSNG [K20L]: 3.61; RETASLKLLPHQPRIVEMKWGSNG [K20W]: 2.48. RETASLKLLPHQPRIVEMKNGSNG [K20N]: the protein stability index was 4.28.

With RETASLKLLPHQPRIVEMKFGSNG [K20F], the protein stability index is 3. For the variant RETASLKLLPHQPRIVEMKVGSNG [K20V], the protein stability index was 3.7. In the case of RETASLKLLPHQPRIVEMKGGSNG [K20G] it was 4.14; in that of RETASLKLLPHQPRIVEMKYGSNG [K20Y], 3.62.

For RETASLKLLPHQPRIVEMKIGSNG [K20I], the protein stability index came to 3.41.

Turning to RETASLKLLPHQPRIVETKKGSNG [M18T], the protein stability index stood at 4.85. In the case of RETASLKLLPHQPRIVECKKGSNG [M18C] it was 4.33. In the case of RETASLKLLPHQPRIVEDKKGSNG [M18D] it was 5.3; in that of RETASLKLLPHQPRIVEQKKGSNG [M18Q], 4.58. In the case of RETASLKLLPHQPRIVEVKKGSNG [M18V] it was 3.86; in that of RETASLKLLPHQPRIVEKKKGSNG [M18K], 4.56; in that of RETASLKLLPHQPRIVEIKKGSNG [M18I], 4.21. RETASLKLLPHQPRIVESKKGSNG [M18S]: the protein stability index worked out at 4.79. Consider RETASLKLLPHQPRIVEYKKGSNG [M18Y], for which the protein stability index came out at 3.91. In the case of RETASLKLLPHQPRIVEFKKGSNG [M18F] it was 4; in that of RETASLKLLPHQPRIVEAKKGSNG [M18A], 4.51; in that of RETASLKLLPHQPRIVEHKKGSNG [M18H], 4.44. In the case of RETASLKLLPHQPRIVELKKGSNG [M18L] it was 4.15; in that of RETASLKLLPHQPRIVEEKKGSNG [M18E], 5.25; in that of RETASLKLLPHQPRIVERKKGSNG [M18R], 4.93.

With RETASLKLLPHQPRIVEWKKGSNG [M18W], the protein stability index came out at 3.53.

For the variant RETASLKLLPHQPRIVEPKKGSNG [M18P], the protein stability index amounted to 4.58. In the case of RETASLKLLPHQPRSVEMKKGSNG [I15S] it was 4.69; in that of RETASLKLLPHQPRWVEMKKGSNG [I15W], 2.79; in that of RETASLKLLPHQPRVVEMKKGSNG [I15V], 3.51.

In the case of RETASLKLLPHQPRYVEMKKGSNG [I15Y], the protein stability index came out at 4.01.

Consider RETASLKLLPHQPRTVEMKKGSNG [I15T], for which the protein stability index stood at 4.49. Next, RETASLKLLPHQPRIVEMYKGSNG [K19Y]: 2.2; RETASLKLLPHQPRIVEMTKGSNG [K19T]: 2.61.

Consider RETASLKLLPHQPRIVEMAKGSNG [K19A], for which the protein stability index was 3.55. Next, RETASLKLLPHQPRIVEMHKGSNG [K19H]: 2.65.

Consider RETASLKLLPHQPRIVEMIKGSNG [K19I], for which the protein stability index is 2.77.

RETASLKLLPHQPRIVEMSKGSNG [K19S]: the protein stability index was determined as 3.49. In the case of RETASLKLLPHQPRIVEMVKGSNG [K19V] it was 2.39.

In the case of RETASLKLLPHQPRIVEMRKGSNG [K19R], the protein stability index is 2.63. In the case of RETASLKLLPHQPRIVEMDKGSNG [K19D] it was 4.35; in that of RETASLKLLPHQPRIVEMCKGSNG [K19C], 2.29. Next, RETASLKLLPHQPRIVEMWKGSNG [K19W]: 3.14. Consider RETASLKLLPHQPRIVEMPKGSNG [K19P], for which the protein stability index is 4.52.

Take RETASLKLLPHQPRIVEMLKGSNG [K19L]: the protein stability index turned out to be 2.79.

With RETASLKLLPHQPRIVEMGKGSNG [K19G], the protein stability index came to 4.83. Next, RETASLKLLPHQPRIVEMEKGSNG [K19E]: 3.94; RETASLKLLPHQPRIVEMNKGSNG [K19N]: 3.28.

As for RETASLKLLPHQPRIVEMKKKSNG [G21K], the protein stability index stood at 3.74. Next, RETASLKLLPHQPRIVEMKKFSNG [G21F]: 2.64; RETASLKLLPHQPRIVEMKKESNG [G21E]: 4.29. Next, RETASLKLLPHQPRIVEMKKASNG [G21A]: 2.67. Next, RETASLKLLPHQPRIVEMKKDSNG [G21D]: 4.48; RETASLKLLPHQPRIVEMKKCSNG [G21C]: 2.58.

For RETASLKLLPHQPRIVEMKKISNG [G21I], the protein stability index turned out to be 3.23. Consider RETASLKLLPHQPRILEMKKGSNG [V16L], for which the protein stability index stood at 3.87. For the variant RETASLKLLPHQPRITEMKKGSNG [V16T], the protein stability index stood at 4.67. In the case of RETASLKLLPHQPRIQEMKKGSNG [V16Q] it was 4.51; in that of RETASLKLLPHQPRIIEMKKGSNG [V16I], 3.9. Next, RETASLKLLPHQPRIMEMKKGSNG [V16M]: 4.17. In the case of RETASLKLLPHQPRIAEMKKGSNG [V16A] it was 4.42.

Turning to RETASLKLLPHQPRIYEMKKGSNG [V16Y], the protein stability index is 3.68.

Consider RETASLKLLPHQPRIPEMKKGSNG [V16P], for which the protein stability index came out at 4.63. In the case of RETASLKLLPHQPRIGEMKKGSNG [V16G] it was 4.85; in that of RETASLKLLPHQPRIFEMKKGSNG [V16F], 4.05.

On to RETASLKLLPHQPRIHEMKKGSNG [V16H], for which the protein stability index came out at 4.35. Next, RETASLKLLPHQPRISEMKKGSNG [V16S]: 3.92. Next, RETASLKLLPHQPRINEMKKGSNG [V16N]: 4.88; RETASLKLLPHQPRIWEMKKGSNG [V16W]: 3.57; RETASLKLLPHQPRIEEMKKGSNG [V16E]: 4.53.

As to RETASLKLLPHQPRIDEMKKGSNG [V16D], the protein stability index was 4.18.

For RETASLKLLPHQPRIVDMKKGSNG [E17D], the protein stability index worked out at 4.08. Next, RETASLKLLPHQPRIVSMKKGSNG [E17S]: 3.67. In the case of RETASLKLLPHQPRIVRMKKGSNG [E17R] it was 4.02; in that of RETASLKLLPHQPRIVPMKKGSNG [E17P], 2.97. Next, RETASLKLLPHQPRIVNMKKGSNG [E17N]: 4.28; RETASLKLLPHQPRIVTMKKGSNG [E17T]: 3.86; RETASLKLLPHQPRIVQMKKGSNG [E17Q]: 2.92. Regarding RETASLKLLPHQPRIVHMKKGSNG [E17H], the protein stability index turned out to be 3.67. In the case of RETASLKLLPHQPRIVKMKKGSNG [E17K] it was 3.82; in that of RETASLKLLPHQPRIVWMKKGSNG [E17W], 2.7; in that of RETASLKLLPHQPRIVIMKKGSNG [E17I], 2.42. In the case of RETASLKLLPHQPRIVGMKKGSNG [E17G] it was 3.48; in that of RETASLKLLPHQPRIVFMKKGSNG [E17F], 2.81; in that of RETASLKLLPHQPRIVYMKKGSNG [E17Y], 2.51. In the case of RETASLKLLPHQPRIVCMKKGSNG [E17C] it was 3.17; in that of RETASLKLLPHQPRIVLMKKGSNG [E17L], 2.66. Turning to RETASLKLLPHQPRIVVMKKGSNG [E17V], the protein stability index was 3.21.
